Columns and labels:
Assay in all cases: holdup assay
Design in all cases: key: below the threshold = too weak to quantify, mostly under pKd 3.1 to 4
Details in all cases: plain residues with an end cap or a label only (N-terminal biotin on a linker: ado-ado)
[1] = target: T1, RADIL, Q96JH8
T1 sequence (Q96JH8 971-1071, limits assumed, looked up): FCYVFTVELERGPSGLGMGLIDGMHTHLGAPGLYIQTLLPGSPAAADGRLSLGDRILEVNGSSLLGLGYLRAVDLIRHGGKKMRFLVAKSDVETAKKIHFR

[2] = target: GRIP2_5, Q9C0E4
[3] = target: PTPN3, P26045
[4] = target: DLG1_3, Q12959
[5] = target: DLG1_2, Q12959
[6] = target: T2, CARD11, Q9BXL7
T2 sequence (Q9BXL7 662-765, limits assumed, looked up): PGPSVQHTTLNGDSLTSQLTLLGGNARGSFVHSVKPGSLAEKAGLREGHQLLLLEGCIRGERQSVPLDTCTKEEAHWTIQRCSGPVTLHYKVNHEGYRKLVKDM

[7] = target: T3, NHERF3_1, Q5T2W1
T3 sequence (Q5T2W1 4-100, limits assumed, looked up): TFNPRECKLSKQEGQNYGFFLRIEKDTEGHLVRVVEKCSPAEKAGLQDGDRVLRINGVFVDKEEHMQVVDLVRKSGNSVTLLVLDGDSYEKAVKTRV

[8] = target: MAGI2_2, Q86UL8
[9] = target: HTRA2, O43464
[10] = target: NHERF4_2, Q86UT5
[11] = target: MAGI2_5, Q86UL8
[12] = target: GORASP1, Q9BQQ3
[13] = target: T4, ARHGEF11, O15085
T4 sequence (O15085 42-136, limits assumed, looked up): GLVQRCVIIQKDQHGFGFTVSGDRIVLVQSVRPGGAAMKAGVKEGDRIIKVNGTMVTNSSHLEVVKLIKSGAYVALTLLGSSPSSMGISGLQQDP

[14] = target: T5, DFNB31_3, Q9P202
T5 sequence (Q9P202 811-907, limits assumed, looked up): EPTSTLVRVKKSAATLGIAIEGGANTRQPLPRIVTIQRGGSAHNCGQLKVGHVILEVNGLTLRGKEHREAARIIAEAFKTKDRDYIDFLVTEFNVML

[15] = target: T6, GRIP1_3, Q9Y3R0
T6 sequence (Q9Y3R0 247-346, limits assumed, looked up): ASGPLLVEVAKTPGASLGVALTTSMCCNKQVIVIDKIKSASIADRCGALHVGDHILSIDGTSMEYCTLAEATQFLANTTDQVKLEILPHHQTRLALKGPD

[16] = target: DLG2_3, Q15700
[17] = target: SCRIB_3, Q14160
[18] = target: MAGI2_6, Q86UL8
[19] = target: FRMPD2_2, Q68DX3
[20] = target: Inadl_1, Q8NI35
[21] = target: T7, LNX2_3, Q8N448
T7 sequence (Q8N448 463-564, limits assumed, looked up): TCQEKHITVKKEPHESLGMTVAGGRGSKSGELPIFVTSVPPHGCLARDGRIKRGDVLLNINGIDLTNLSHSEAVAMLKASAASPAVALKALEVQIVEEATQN

[22] = target: T8, SNTA1, Q13424
T8 sequence (Q13424 82-180, limits assumed, looked up): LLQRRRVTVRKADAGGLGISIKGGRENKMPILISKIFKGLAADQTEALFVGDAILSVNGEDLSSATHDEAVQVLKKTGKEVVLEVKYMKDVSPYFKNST

[23] = target: T9, MPDZ_10, O75970
T9 sequence (O75970 1624-1722, limits assumed, looked up): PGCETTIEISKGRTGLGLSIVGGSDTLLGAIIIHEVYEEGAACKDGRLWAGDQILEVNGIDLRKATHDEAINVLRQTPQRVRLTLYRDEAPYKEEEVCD

[24] = target: GRIP2_3, Q9C0E4
[25] = target: T10, GRIP1_5, Q9Y3R0
T10 sequence (Q9Y3R0 568-668, limits assumed, looked up): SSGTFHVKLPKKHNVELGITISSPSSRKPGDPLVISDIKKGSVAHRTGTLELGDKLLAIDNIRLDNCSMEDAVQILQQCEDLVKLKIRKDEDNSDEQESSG

[26] = target: Inadl_4, Q8NI35
[27] = target: MAGI3_2, Q5TCQ9
Sequence of MAGI3_2, Q5TCQ9 (Q5TCQ9 398-503): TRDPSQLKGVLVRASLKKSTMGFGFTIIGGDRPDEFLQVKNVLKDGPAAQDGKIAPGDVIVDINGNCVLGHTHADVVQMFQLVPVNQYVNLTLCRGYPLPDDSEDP

Sequence of DLG1_2, Q12959 (Q12959 314-412): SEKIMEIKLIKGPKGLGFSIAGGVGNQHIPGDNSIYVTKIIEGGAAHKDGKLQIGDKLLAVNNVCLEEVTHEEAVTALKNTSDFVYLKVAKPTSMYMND
Sequence of MAGI2_2, Q86UL8 (Q86UL8 410-522): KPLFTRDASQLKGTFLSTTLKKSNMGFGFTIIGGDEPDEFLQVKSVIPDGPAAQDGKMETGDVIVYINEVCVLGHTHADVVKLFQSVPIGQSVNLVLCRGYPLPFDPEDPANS
Sequence of HTRA2, O43464 (O43464 355-458): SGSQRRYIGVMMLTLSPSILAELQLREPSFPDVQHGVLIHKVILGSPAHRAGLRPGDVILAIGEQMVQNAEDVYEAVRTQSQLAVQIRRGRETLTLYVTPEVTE
Sequence of Inadl_1, Q8NI35 (Q8NI35 113-229): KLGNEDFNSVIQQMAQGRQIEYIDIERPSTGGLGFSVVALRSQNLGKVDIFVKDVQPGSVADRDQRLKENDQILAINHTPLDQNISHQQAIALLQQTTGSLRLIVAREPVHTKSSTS
Sequence of Inadl_4, Q8NI35 (Q8NI35 547-651): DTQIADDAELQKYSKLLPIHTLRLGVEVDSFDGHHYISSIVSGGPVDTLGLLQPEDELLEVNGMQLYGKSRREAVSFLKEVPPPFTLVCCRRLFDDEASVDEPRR
Sequence of SCRIB_3, Q14160 (Q14160 999-1103): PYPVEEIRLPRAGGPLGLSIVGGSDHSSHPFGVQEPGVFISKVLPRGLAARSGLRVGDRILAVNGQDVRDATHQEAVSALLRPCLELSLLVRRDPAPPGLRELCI
Sequence of GRIP2_5, Q9C0E4 (Q9C0E4 544-642): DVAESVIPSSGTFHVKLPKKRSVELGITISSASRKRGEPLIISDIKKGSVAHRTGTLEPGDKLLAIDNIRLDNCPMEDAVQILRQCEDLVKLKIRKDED
Sequence of DLG1_3, Q12959 (Q12959 457-571): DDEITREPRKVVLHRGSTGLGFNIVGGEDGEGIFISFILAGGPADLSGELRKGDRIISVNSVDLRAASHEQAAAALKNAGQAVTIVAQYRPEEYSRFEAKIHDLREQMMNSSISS
Sequence of GRIP2_3, Q9C0E4 (Q9C0E4 238-339): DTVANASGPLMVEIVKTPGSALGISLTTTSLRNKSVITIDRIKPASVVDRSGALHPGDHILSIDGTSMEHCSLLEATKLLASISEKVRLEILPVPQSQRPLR
Sequence of GORASP1, Q9BQQ3 (Q9BQQ3 1-208): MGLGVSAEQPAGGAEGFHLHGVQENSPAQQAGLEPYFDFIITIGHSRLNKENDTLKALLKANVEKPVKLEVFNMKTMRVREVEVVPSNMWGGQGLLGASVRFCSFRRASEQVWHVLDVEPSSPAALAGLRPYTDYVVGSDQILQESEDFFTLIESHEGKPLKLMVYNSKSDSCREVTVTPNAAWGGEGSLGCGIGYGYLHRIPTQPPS
Sequence of NHERF4_2, Q86UT5 (Q86UT5 220-308): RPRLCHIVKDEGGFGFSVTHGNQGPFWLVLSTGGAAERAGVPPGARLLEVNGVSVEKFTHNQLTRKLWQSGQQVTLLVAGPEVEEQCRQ
Sequence of FRMPD2_2, Q68DX3 (Q68DX3 944-1038): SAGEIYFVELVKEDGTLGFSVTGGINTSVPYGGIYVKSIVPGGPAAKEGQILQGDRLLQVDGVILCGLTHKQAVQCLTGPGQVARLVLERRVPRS
Sequence of MAGI2_5, Q86UL8 (Q86UL8 915-1017): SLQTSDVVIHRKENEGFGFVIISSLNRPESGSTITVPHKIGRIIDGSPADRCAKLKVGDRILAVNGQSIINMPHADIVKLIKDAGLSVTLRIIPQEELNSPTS
Sequence of PTPN3, P26045 (P26045 505-587): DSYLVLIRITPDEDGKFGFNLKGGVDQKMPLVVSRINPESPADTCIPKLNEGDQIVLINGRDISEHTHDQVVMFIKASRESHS
Sequence of MAGI2_6, Q86UL8 (Q86UL8 1141-1229): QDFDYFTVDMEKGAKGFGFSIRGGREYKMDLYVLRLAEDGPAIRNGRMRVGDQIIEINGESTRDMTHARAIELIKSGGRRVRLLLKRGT

B1: CLDN19, Q8N6F1 (peptide)
chain: PASAKGPLGV
B1 was tested, and the pKd [1] was “below the threshold”, the pKd [2] was “below the threshold” and the pKd [3] was “below the threshold”. For the same binder, the pKd [4] was “below the threshold”, the pKd [5] was “below the threshold” and the pKd [6] was “below the threshold”. The pKd [7] was “below the threshold”, the pKd [8] was “below the threshold” and the pKd [9] was “below the threshold”. The pKd [10] was “below the threshold”, the pKd [11] was “below the threshold” and the pKd [12] was “below the threshold”. For the same binder, the pKd [13] was “below the threshold”, the pKd [14] was “below the threshold” and the pKd [15] was “below the threshold”. For the same binder, the pKd [16] was “below the threshold”, the pKd [17] was “below the threshold” and the pKd [18] was “below the threshold”. The pKd [19] was “below the threshold”, the pKd [20] was “below the threshold” and the pKd [21] was “below the threshold”. The pKd [22] was “below the threshold”, the pKd [23] was “below the threshold” and the pKd [24] was “below the threshold”. For the same binder, the pKd [25] was “below the threshold”, the pKd [26] was “below the threshold” and the pKd [27] was “below the threshold”.

B2: MARCHF4, Q9P2E8 (peptide)
chain: RELVMRVTTV
For B2, the pKd [1] was 4.74, the pKd [2] was “below the threshold” and the pKd [3] was 4.54. The pKd [4] was 5.12, the pKd [5] was 5.41 and the pKd [6] was “below the threshold”. For the same binder, the pKd [7] was “below the threshold”, the pKd [8] was 5.12 and the pKd [9] was 3.83. The pKd [10] was “below the threshold”, the pKd [11] was 4.05 and the pKd [12] was 4.36. For the same binder, the pKd [13] was 4.71, the pKd [14] was 4.33 and the pKd [15] was “below the threshold”. The pKd [16] was 4.93, the pKd [17] was 4.73 and the pKd [18] was 4.55. For the same binder, the pKd [19] was 4.06, the pKd [20] was “below the threshold” and the pKd [21] was “below the threshold”. The pKd [22] was 5.1, the pKd [23] was 4.35 and the pKd [24] was “below the threshold”. The pKd [25] was “below the threshold”, the pKd [26] was “below the threshold” and the pKd [27] was 5.07.

B3: SLC6A3, Q01959 (peptide)
chain: QFTLRHWLKV
In the case of B3, the pKd [1] is reported as 4.42, the pKd [2] is reported as “below the threshold” and the pKd [3] is reported as “below the threshold”. The pKd [4] was “below the threshold”, the pKd [5] was “below the threshold” and the pKd [6] was “below the threshold”. For the same binder, the pKd [7] was 3.77, the pKd [8] was 3.68 and the pKd [9] was 4.06. The pKd [10] was “below the threshold”, the pKd [11] was “below the threshold” and the pKd [12] was 4.13. The pKd [13] was “below the threshold”, the pKd [14] was “below the threshold” and the pKd [15] was “below the threshold”. For the same binder, the pKd [16] was “below the threshold”, the pKd [17] was 3.51 and the pKd [18] was “below the threshold”. The pKd [19] was “below the threshold”, the pKd [20] was “below the threshold” and the pKd [21] was “below the threshold”. For the same binder, the pKd [22] was “below the threshold”, the pKd [23] was “below the threshold” and the pKd [24] was “below the threshold”. The pKd [25] was “below the threshold”, the pKd [26] was “below the threshold” and the pKd [27] was “below the threshold”.

B4: PPFIA1, Q13136 (peptide)
chain: DSATVRTYSC
For B4, the pKd [1] was “below the threshold”, the pKd [2] was “below the threshold” and the pKd [3] was 3.68. The pKd [4] was “below the threshold”, the pKd [5] was “below the threshold” and the pKd [6] was “below the threshold”. The pKd [7] was 3.77, the pKd [8] was “below the threshold” and the pKd [9] was 3.66. For the same binder, the pKd [10] was “below the threshold”, the pKd [11] was “below the threshold” and the pKd [12] was “below the threshold”. For the same binder, the pKd [13] was 3.66, the pKd [14] was 3.51 and the pKd [15] was “below the threshold”. For the same binder, the pKd [16] was 3.73, the pKd [17] was “below the threshold” and the pKd [18] was “below the threshold”. The pKd [19] was “below the threshold”, the pKd [20] was “below the threshold” and the pKd [21] was “below the threshold”. The pKd [22] was “below the threshold”, the pKd [23] was “below the threshold” and the pKd [24] was “below the threshold”. For the same binder, the pKd [25] was “below the threshold”, the pKd [26] was “below the threshold” and the pKd [27] was “below the threshold”.

B5: STK16, O75716 (peptide)
chain: PAPGQHTTQI
With B5 the pKd [1] was 3.75, the pKd [2] was “below the threshold” and the pKd [3] was 4.21. The pKd [4] was 3.71, the pKd [5] was 3.73 and the pKd [6] was “below the threshold”. For the same binder, the pKd [7] was 4.26, the pKd [8] was “below the threshold” and the pKd [9] was “below the threshold”. For the same binder, the pKd [10] was “below the threshold”, the pKd [11] was “below the threshold” and the pKd [12] was “below the threshold”. For the same binder, the pKd [13] was “below the threshold”, the pKd [14] was 4.23 and the pKd [15] was “below the threshold”. The pKd [16] was 3.67, the pKd [17] was 4.18 and the pKd [18] was “below the threshold”. For the same binder, the pKd [19] was 3.48, the pKd [20] was “below the threshold” and the pKd [21] was “below the threshold”. For the same binder, the pKd [22] was “below the threshold”, the pKd [23] was “below the threshold” and the pKd [24] was “below the threshold”. The pKd [25] was “below the threshold”, the pKd [26] was “below the threshold” and the pKd [27] was “below the threshold”.

Source: publication PMC9482650, “Quantitative fragmentomics allow affinity mapping of interactomes” (Nature Communications, 2022)
